Source: patent US20180037631A1 (Bristol-Myers Squibb, published 2018)

Legend:
[1] = target: T1, EGFR on the surface of human tumour cells (A431, H292) (human, UniProt P00533 25-1210); assay: cell-based or functional assay
[2] = target: T1, EGFR on the surface of human tumour …; assay: cell-based or functional assay; remark: listed apart in the source
[3] = target: IGF-IR on human tumour cells (H292, MCF-7, RH41) (human, UniProt P08069 31-1367); assay: cell-based or functional assay
[4] = target: T2, IGF1R-Fc (extracellular domain of human IGF1R aa 1-932 fused to hinge and constant regions of human IgG1) (human, UniProt P08069 31-932)
T2 construct: range 1-932; made in house by transient transfection, purified on Protein A; also called IGF-IR-Fc; not shown: hinge and constant regions of human IgG1

[5] = target: T3, Recombinant human EGFR-Fc (aa 1-645 of the extracellular domain of human EGFR fused to human Fc) (human, UniProt P00533 25-645)
T3 construct: range 1-645; bought from R&D Systems; also called EGFR645-Fc; EGFR-Fc (HER-1); not shown: human Fc

[6] = target: T1, EGFR on the surface of human tumour …

| Binder | % inhibition of EGFR phosphorylation at 100 nM binder, cell-based assay [1] [%] | IC50, IGF1-stimulated IGFR phosphorylation, H292 cells, ELISA [3] [nM] | Kd [4] [nM] | further results |
| --- | --- | --- | --- | --- |
| E88 (designed binder) 10Fn3 domain: MGVSDVPRDLEVVAATPTSLLISWSATNKTYQYYRITYGETGGNSPVQEFTVPGGVRTATISGLKPGVDYTITVYAVTDYFNPTTHEYIYQTTPISINYRTEIDKPSQ | 89.3 | – | – | – |
| E92 (designed binder) 10Fn3 domain: MGVSDVPRDLEVVAATPTSLLISWQAANHSYQYYRITYGETGGNSPVQEFTVPGGVRTATISGLKPGVDYTITVYAVTDFFNPVTHEYKYRTIPISINYRTEIDKPSQ | 88.5 | – | – | – |
| E96 (designed binder) 10Fn3 domain: MGVSDVPRDLEVVAATPTSLLISWASNRGTYQYYRITYGETGGNSPVQEFTVPGGVSTATISGLKPGVDYTITVYAVTDAFNPTTHEYNYFTTPISINYRTEIDKPSQ | 91.7 | – | – | – |
| E89 (designed binder) 10Fn3 domain: MGVSDVPRDLEVVAATPTSLLISWDDPAANRQYYRITYGETGGNSPVQEFTVPYDLRTATISGLKPGVDYTITVYAVTDYYNPATHQYKYSQSPISINYRTEIDKPSQ | 82.6 | – | – | – |
| E85-GS10-I1 pegylated (designed binder, Cys of the C-terminal Cys tail conjugated to 40 kDa branched PEG) E/I tandem 10Fn3 chain: MGVSDVPRDLEVVAATPTSLLISWTQGSTHYQYYRITYGETGGNSPVQEFTVPGMVYTATISGLKPGVDYTITVYAVTDYFDRSTHEYKYRTTPISINYRTEIDKGSGSGSGSGSGSGSGSGSGSVSDVPRDLEVVAATPTSLLISWSARLKVARYYRITYGETGGNSPVQEFTVPKNVYTATISGLKPGVDYTITVYAVTRFRDYQPISINYRTEIDKPCQHHHHHH | – | 0.3 | 0.75 | IC50, EGF-induced EGFR phosphorylation, A431 cells, In Cell Western [2]: 15 nM; IC50, EGF-induced ERK phosphorylation, A431 cells, In Cell Western [2]: 15 nM; IC50, EGF-stimulated EGFR phosphorylation, H292 cells, ELISA [2]: 4 nM; Kd [5]: 4.76 nM; IC50 [6]: 65.9 nM |
| E86 (designed binder) 10Fn3 domain: MGVSDVPRDLEVVAATPTSLLISWDSGENNYQYYRITYGETGGNSPVQEFTVPGGVRTATISGLKPGVDYTITVYAVTDYYNPKTHEYNYLTIPISINYRTEIDKPSQ | 84.7 | – | – | – |
| E96-GS10-I1 pegylated (designed binder, Cys of the C-terminal Cys tail conjugated to 40 kDa branched PEG) E/I tandem 10Fn3 chain: MGVSDVPRDLEVVAATPTSLLISWASNRGTYQYYRITYGETGGNSPVQEFTVPGGVSTATISGLKPGVDYTITVYAVTDAFNPTTHEYNYFTTPISINYRTEIDKGSGSGSGSGSGSGSGSGSGSVSDVPRDLEVVAATPTSLLISWSARLKVARYYRITYGETGGNSPVQEFTVPKNVYTATISGLKPGVDYTITVYAVTRFRDYQPISINYRTEIDKPCQHHHHHH | – | 0.4 | 0.96 | IC50, EGF-induced EGFR phosphorylation, A431 cells, In Cell Western [2]: 61 nM; IC50, EGF-induced ERK phosphorylation, A431 cells, In Cell Western [2]: 54 nM; IC50, EGF-stimulated EGFR phosphorylation, H292 cells, ELISA [2]: 10 nM; Kd [5]: 24.2 nM; IC50 [6]: 43.8 nM |
| I1-GS10-E112 pegylated (designed binder, Cys of the C-terminal Cys tail conjugated to 40 kDa branched PEG) I/E tandem 10Fn3 chain: MGVSDVPRDLEVVAATPTSLLISWSARLKVARYYRITYGETGGNSPVQEFTVPKNVYTATISGLKPGVDYTITVYAVTRFRDYQPISINYRTEIDKGSGSGSGSGSGSGSGSGSGSVSDVPRDLEVVAATPTSLLISWDAGAVTYQYYRITYGETGGNSPVQEFTVPGGVRTATISGLKPGVDYTITVYAVTDYKPHADGPHTYHEYPISINYRTEIDKPCQHHHHHH | – | 0.3 | – | – |
| E87 (designed binder) 10Fn3 domain: MGVSDVPRDLEVVAATPTSLLISWGSPLIEYQYYRITYGETGGNSPVQEFTVPGGLSTATISGLKPGVDYTITVYAVTDYFNPATHEYTYHVSPISINYRTEIDKPSQ | 87 | – | – | – |
| E95 (designed binder) 10Fn3 domain: MGVSDVPRDLEVVAATPTSLLISWVVPQGMYQYYRITYGETGGNSPVQEFTVPGGVSTATISGLKPGVDYTITVYAVTDYFNPATHEYNYHSIPISINYRTEIDKPSQ | 98 | – | – | – |
| E93 (designed binder) 10Fn3 domain: MGVSDVPRDLEVVAATPTSLLISWDSGRGSYQYYRITYGETGGNSPVQEFTVPGGVRTATISGLKPGVDYTITVYAVTDYKPHADGPHTYHEYPISINYRTEIDKPSQ | 76.9 | – | – | – |
| E97 (designed binder) 10Fn3 domain: MGVSDVPRDLEVVAATPTSLLISWLPGKLRYQYYRITYGETGGNSPVQEFTVPHDLRTATISGLKPGVDYTITVYAVTDYKPHADGPHTYHESPISINYRTEIDKPSQ | 89.3 | – | – | – |
| E94 (designed binder) 10Fn3 domain: MGVSDVPRDLEVVAATPTSLLISWNNGGRNYQYYRITYGETGGNSPVQEFTVPYDVYTATISGLKPGVDYTITVYAVTDYKPHADGPHTYHEYPISINYRTEIDKPSQ | 78.7 | – | – | – |
| E98 (designed binder) 10Fn3 domain: MGVSDVPRDLEVVAATPTSLLISWDAPTSRYQYYRITYGETGGNSPVQEFTVPGGVRTATISGLKPGVDYTITVYAVTDHKPHADGPHTYHEYPISINYRTEIDKPSQ | 75.8 | – | – | – |
| E90-GS10-I1 pegylated (designed binder, Cys of the C-terminal Cys tail conjugated to 40 kDa branched PEG) E/I tandem 10Fn3 chain: MGVSDVPRDLEVVAATPTSLLISWYWEGLPYQYYRITYGETGGNSPVQEFTVPRDVNTATISGLKPGVDYTITVYAVTDWYNPDTHEYIYHTIPISINYRTEIDKGSGSGSGSGSGSGSGSGSGSVSDVPRDLEVVAATPTSLLISWSARLKVARYYRITYGETGGNSPVQEFTVPKNVYTATISGLKPGVDYTITVYAVTRFRDYQPISINYRTEIDKPCQHHHHHH | – | 0.4 | 1.5 | IC50, EGF-induced EGFR phosphorylation, A431 cells, In Cell Western [2]: 65 nM; IC50, EGF-induced ERK phosphorylation, A431 cells, In Cell Western [2]: 63 nM; IC50, EGF-stimulated EGFR phosphorylation, H292 cells, ELISA [2]: 10 nM; Kd [5]: 13.5 nM; IC50 [6]: 69.1 nM |
| E91 (designed binder) 10Fn3 domain: MGVSDVPRDLEVVAATPTSLLISWSAPWRTYQYYRITYGETGGNSPVQEFTVPYDVYTATISGLKPGVDYTITVYAVTDYLNPNTLEYTYQRIPISINYRTEIDKPSQ | 84.7 | – | – | – |
| E90 (designed binder) 10Fn3 domain: MGVSDVPRDLEVVAATPTSLLISWYWEGLPYQYYRITYGETGGNSPVQEFTVPRDVNTATISGLKPGVDYTITVYAVTDWYNPDTHEYIYHTIPISINYRTEIDKPSQ | 81.3 | – | – | – |
| E105-GS10-I1 pegylated (designed binder, Cys of the C-terminal Cys tail conjugated to 40 kDa branched PEG) E/I tandem 10Fn3 chain: MGVSDVPRDLEVVAATPTSLLISWDAPTSRYQYYRITYGETGGNSPVQEFTVPGGLSTATISGLKPGVDYTITVYAVTDYKPHADGPHTYHESPISINYRTEIDKGSGSGSGSGSGSGSGSGSGSVSDVPRDLEVVAATPTSLLISWSARLKVARYYRITYGETGGNSPVQEFTVPKNVYTATISGLKPGVDYTITVYAVTRFRDYQPISINYRTEIDKPCQHHHHHH | – | 0.5 | 1.35 | IC50, EGF-induced EGFR phosphorylation, A431 cells, In Cell Western [2]: 56 nM; IC50, EGF-induced ERK phosphorylation, A431 cells, In Cell Western [2]: 61 nM; IC50, EGF-stimulated EGFR phosphorylation, H292 cells, ELISA [2]: 15 nM; Kd [5]: 9.28 nM; IC50 [6]: 75 nM |
| E105-GS10-I1 pegylated (designed binder, chain 1 pos 221: Cys carrying a maleimide-linked 40 kDa branched PEG, written C, lower row of the two named E105-GS10-I1 pegylated) MGVSDVPRDLEVVAATPTSLLISWDAPTSRYQYYRITYGETGGNSPVQEFTVPGGLSTATISGLKPGVDYTITVYAVTDYKPHADGPHTYHESPISINYRTEIDKGSGSGSGSGSGSGSGSGSGSVSDVPRDLEVVAATPTSLLISWSARLKVARYYRITYGETGGNSPVQEFTVPKNVYTATISGLKPGVDYTITVYAVTRFRDYQPISINYRTEIDKPCQHHHHHH | – | 0.5 | 1.19 | IC50, EGF-induced EGFR phosphorylation, A431 cells, In Cell Western [2]: 61 nM; IC50, EGF-induced ERK phosphorylation, A431 cells, In Cell Western [2]: 49 nM; IC50, EGF-stimulated EGFR phosphorylation, H292 cells, ELISA [2]: 16 nM; Kd [5]: 7.65 nM; IC50 [6]: 93.8 nM |
| E5-GS10-I1 pegylated (designed binder, Cys of the C-terminal Cys tail conjugated to 40 kDa branched PEG) E/I tandem 10Fn3 chain: MGVSDVPRDLEVVAATPTSLLISWWAPVDRYQYYRITYGETGGNSPVQEFTVPRDVYTATISGLKPGVDYTITVYAVTDYKPHADGPHTYHESPISINYRTEIDKGSGSGSGSGSGSGSGSGSGSVSDVPRDLEVVAATPTSLLISWSARLKVARYYRITYGETGGNSPVQEFTVPKNVYTATISGLKPGVDYTITVYAVTRFRDYQPISINYRTEIDKPCQHHHHHH | – | 0.4 | 1.16 | – |
